T1: hWH (Wuho, WDR4) (Homo sapiens, UniProt P57081 1-412)
T1 sequence: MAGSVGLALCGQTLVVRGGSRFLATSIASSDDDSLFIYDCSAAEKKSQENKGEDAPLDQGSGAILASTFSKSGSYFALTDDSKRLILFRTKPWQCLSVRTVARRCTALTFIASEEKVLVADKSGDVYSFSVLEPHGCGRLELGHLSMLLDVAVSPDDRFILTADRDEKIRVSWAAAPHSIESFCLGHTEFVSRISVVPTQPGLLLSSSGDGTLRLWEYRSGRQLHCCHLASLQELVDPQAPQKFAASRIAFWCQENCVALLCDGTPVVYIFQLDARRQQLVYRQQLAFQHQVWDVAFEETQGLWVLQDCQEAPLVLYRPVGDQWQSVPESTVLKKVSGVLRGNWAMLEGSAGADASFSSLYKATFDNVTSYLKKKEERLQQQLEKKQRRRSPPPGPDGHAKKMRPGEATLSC

B1: Double-flap substrate (dsDNA)
DNA 1: GATGTCAAGCAGTCCTAACTTTGAGGCAGAGTCC
DNA 2: GGACTCTGCCTCAAGACGGTAGTCAACGTG
DNA 3: CACGTTGACTACCGTCC
B2: Y-shape substrate (dsDNA)
DNA 1: B1 DNA 1
DNA 2: B1 DNA 2

Assays:
[1] = target: FEN1 (Homo sapiens, UniProt P39748 1-380); assay: EMSA; no Mg2+ in binding buffer; FEN1 25-1000 nM; 50 nM DNA, 50 mM Tris pH 8, 50 mM NaCl, 37 C, 10 min, 20 ul; TBE-PAGE; conditions: protein: recombinant, tags: C-terminal His6, label: 5' fluorophore (FAM on oligo 1, or Cy5 on oligo 4)
[2] = target: T1, hWH (Wuho, WDR4); assay: EMSA; hWH 25-1000 nM, no significant affinity; 50 nM DNA, 50 mM Tris pH 8, 50 mM NaCl, 37 C, 10 min, 20 ul; TBE-PAGE; conditions: protein: recombinant, tags: C-terminal His6 (pET23b), label: 5' fluorophore (FAM on oligo 1, or Cy5 on oligo 4)
[3] = double flap: 1:15-34 or 1:21-34 pairs with 2:1-14 (14 bp), 5' flap 20 nt, 3:1-16 pairs with 2:15-30 (16 bp), 3' flap 1 nt
[4] = fork: 14 bp duplex (1:21-34 with 2:1-14), 5' arm 20 nt, 3' arm 16 nt

Sequence of FEN1 (P39748 whole entry): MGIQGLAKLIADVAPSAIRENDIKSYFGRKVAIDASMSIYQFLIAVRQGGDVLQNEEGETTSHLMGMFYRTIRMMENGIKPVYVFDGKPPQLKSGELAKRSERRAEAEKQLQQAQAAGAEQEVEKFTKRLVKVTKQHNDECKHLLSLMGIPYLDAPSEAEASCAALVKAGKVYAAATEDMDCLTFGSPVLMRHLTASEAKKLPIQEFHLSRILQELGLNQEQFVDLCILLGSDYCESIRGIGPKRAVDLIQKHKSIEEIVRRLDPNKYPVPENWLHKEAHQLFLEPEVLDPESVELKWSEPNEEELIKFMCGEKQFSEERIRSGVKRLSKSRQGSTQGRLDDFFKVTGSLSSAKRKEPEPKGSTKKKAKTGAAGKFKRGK

Binder | binding result [1, 3] | binding result [2, 3] | binding result [1, 4] | binding result [2, 4]
B1 | binds | no binding |  | 
B2 |  |  | binds | no binding

Source: article PMC4709127, “Wuho Is a New Member in Maintaining Genome Stability through its Interaction with Flap Endonuclease 1”
